# B1: pL1 (structured_DNA)
# DNA: GTTCGATTGGATTGTGCCGGAAGTGCTGGCTCGAAC
# Key:
# hLDH-A = hLDH-A (Homo sapiens, UniProt P00338 2-332); test: EMSA; with or without Mg2+ and EDTA; EMSA: 20 mM HEPES pH 8.0, 5% glycerol, 50 mM NaCl, 5 mM KCl, 5 mM MgCl2 (or none), 5 mM DTT, 10 pmol DNA + 200 pmol protein in 20 ul, 1 h room temperature, gel
# hLDH-B = hLDH-B (Homo sapiens, UniProt P07195 2-334); test: as above; details: protein: commercial; chain copies: 4; hairpin with bulge; stem I T3-A34 to A6-T31, stem II G16-C30 to G20-C26, hairpin-bulge contact A22-T12, A21-T13
# hLDH-B, sequence (P07195 2-334): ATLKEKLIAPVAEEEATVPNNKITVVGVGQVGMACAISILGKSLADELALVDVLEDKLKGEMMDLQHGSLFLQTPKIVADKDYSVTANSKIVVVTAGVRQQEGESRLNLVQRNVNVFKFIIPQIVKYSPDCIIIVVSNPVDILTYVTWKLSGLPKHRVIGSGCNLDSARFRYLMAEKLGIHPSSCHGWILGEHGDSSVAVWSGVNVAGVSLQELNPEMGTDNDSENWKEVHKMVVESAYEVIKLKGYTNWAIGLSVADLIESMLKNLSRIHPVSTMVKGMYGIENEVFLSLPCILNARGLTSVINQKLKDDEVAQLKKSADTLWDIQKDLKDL
# PvLDH = PvLDH (Plasmodium vivax, UniProt Q4PRK9 1-316); test: X-ray crystal structure; details: protein: recombinant; tags: His-tag (pET28a, Histrap); chain copies: 2
binder,measurement,setting,value
B1,binding result,hLDH-A,no binding
same,binding result,hLDH-B,no binding
same,binding result,PvLDH,binds

# Source: article PMC5057103, “Crystal structure of a DNA aptamer bound to PvLDH elucidates novel single-stranded DNA structural elements for folding and recognition”
